Measured values: the nanobody polyreactivity screen of Harvey et al. (2022)

Test: yeast display, Sf9 membrane polyspecificity reagent, FACS + sequencing; frameworks hold sequencing errors
Procedure, shortened: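 Polyreactivity labels are assigned by the sorting gate from which each nanobody was recovered. The gates were low and high (top ~1%), set on anti-HA fluorescence for expression and streptavidin fluorescence for reagent binding. Before sorting, galactose-induced (36–48 hours) yeast display cells were stained for 1 hour at 4 °C with 10% biotinylated, detergent-solubilized Sf9 membrane reagent.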

Sequence	polyreactivity (PSR sort gate)
QVQLVESGGGLVQAGGSLRLSCAASGRIFLYYTMGWYRQAPGKERELVAAITRSGGSTYYADSVKGRFTISRDNAKNTVYLQMNSLKPEDTAVYYCNRAYVRYVPMNYWGQGTQVTVSS	high polyreactivity
QVQLLESGGGLVQAGGSLRLSCAASGLTYAYNTMGWYRQAPGKERELVADISWSGGRTYYADSVKGRFTISRDNAKNTVYLQMNSLKPEDTAVYYCAAEFWHQYGAYDYWGQGTQVTVSS	low polyreactivity
QVQLVESGGGLVQAGGSLRLSCAASGRTFRVYAMGWYRQAPGKERELVAAISWSGGTTYYADSVKGRFTISRDNAKNTVYLQMNSLKPEDSAVYYCARRSRGSSYNYWGQGTQVTVSS	high polyreactivity
QVQLVESGGGLVQAGGSLRLSCAASGVIFKPSAMGWYRQAPGKERELVASISTGARTYYADSVKGRFTISRDTAKNTVYLQLNSLKPEDTAVYYCAAAYSRWITRYDYWGQGTQVTVSS	high polyreactivity
QVQLVESGGGLVQAGGSLRLSCAASGRIFSYNTMGWYRQAPGKERELVAAISGGGTTYYADSVKGRFTISRDNAKNTVYLQMNSLKPEDTAVYYCNAEYYGYSWRRTKYGYWGQGTQVTVSS	high polyreactivity
QVQLVESGGGLVQAGGSLRLSCAASGFIFHPYAMGWYRQAPGKERELVAAISWSGDGTYYADSVKGRFTISRDNAKNTVYLQMNSLKPEDTAVYYCNAGFYRSYYKSPMGYWGQGTQVTVSS	low polyreactivity
QVQLVESGGGLVQAGGSLRLSCAASGRTFLYYAMGWYRQAPGKERELVASISTGGSTNYADSVKGRFTISRDNAKNTVYLQMNSLKPEDTAVYYCATEYPYSYFSIAHYHHGYWGQGTQVTVSS	low polyreactivity
QVQLVESGGGLVQAGGSLRLSCAASGSTIRANAMGWYRQAPGKERELVAAITKNGGSTYYADSVKGRFTISRDNAKNTVYLQMNSLKPEDTAVYYCAARRSSRRPPYYYWGQGTQVTVSS	high polyreactivity
QVQLVESGGGLVQAGGSLRLSCAASGSTFLYYDMGWYRQAPGKERELVATITRGGSTYYADSVKGRFTISRDNAKNTVYLQMNSLKPEDTAVYYCAAYRWGILSAYYYAWYGYWGQGTQVTVSS	low polyreactivity
QVQLVESGGALVQAGGSLRLSCAASGRIFWHNAMGWYRQAPGKERELVAAISSRGGSTSYADSVKGLFTISRDNAKNTVYLQMNSLKPEETAVYYCNARNQAYYRVWGYRGDYWGQGTQVTVSS	low polyreactivity
QVQLVESGGGLVQAGGSLRLSCAASGFIFEYYAMGWYRQAPGKERELVAAISNGGGRTYYADSVKGRFTISRDNAKNTVYLQMNSLKPEDTAVYYCAAYWVYQRNSRTWEYDYWGQGTQVTVSS	high polyreactivity
QVQHVESGAGLVQAGGSLRLSCAASGRTFYYYAMGWYRQAPGKERELVAAISTNGGSTSYADSVKGRFTISRDNAKNTVYLQMNSLKPEDSAVYYSAAYYRTPTDVEYDYWGQGTQVTVSS	high polyreactivity
QVQLVESGGGLVQAGGSLRLSCAASGRIFLWYAMGWYRQAPGKERELVAVITGGGSTNYADSVKGRFTISRDNAKNTVYLQMNSLKPEDTAVYYCATEGYGHGGETDGGVYSDLGYWGQGTQVTVSS	low polyreactivity
QVQLVESGGGLVQAGGSLRLSCAASGLTFYLYAMGWYRQAPGKERELVAAITSAGITYADSVKGRFTISRDNAKNTVYLQMNSLKPEDTAVYYCASSIDCGKCLGRRYDYWGQGSQVTVSS	low polyreactivity
QVQLVESGGGLVQAGGILRLSCAASGRIFRYNAMGWSRQAPGKERELVAAISSSGSSTYYADSVKGRFTISRDNAKNTVYLQMNSLKPADTAVYYCNARIPSRYYYQYDYWGQGTQVTVSS	high polyreactivity
QVQLVESGGGLVQAGGSLRLSCAASGSISGLYAMGWYRQAPGKESELVAAISFSGGSTYYADSVKGRFTISRDNAKNTVYFQMNSLKPEDTAVYYCAADGQYGGVPNTSEWTFDYWGQGTQVTVSS	low polyreactivity
QVQLVESGGGLVQAGGSLRISCAASGIIFSYYAMGWYRQAPGKERELVAAIRENGGSTYYADSVKGRFTISRDNAKNTVYLQMNSLKPEDTAVYYCAVDTTYYAGYEYDYWGQGTQVTVSS	low polyreactivity
QEQLQESAGGLVQACGSQRLSCAASGSISEGQDMGSYRRAPGKEREFVAGIAPGATTYYADSVKGRFTISRDNAKKTVYRQMNSLKAEDTAVYYCAARSVTETDHDYWGQGTQVTVSS	low polyreactivity
QVQLVESGGGLVQAGGSLRISCAASGSILFGNAMGWYRQAPGKERELVAAITVSGGSTYYADSVKGRFTISRDNAKNTVYLQMNSLKPEDTAVYYCAAVSLFRDSQFDYWGQGTQVTVSS	low polyreactivity
QVQLVESGGGLVQAGGSLRLSCAASGFTFSLNTMGWYRQAPGKERELVAAINSGDSTYADSVKGRFTISRDNAKNTVYLQMNSLKPEDTAVYYCNADPDWWYPYNYWGLGTQVTVSS	low polyreactivity
QVQLVESGAGLFQAGGRLRLSCAPSGSTFGTYAMGWYRQAPGKERELVAAITSGGSTDYADSVKGRFTISRDNAKNTVYLQMNSLKPEDTAVYYCNATWELLSYYYLFWGYDYWGQGTQVTVSS	low polyreactivity
QVQLVESGGGLVQAGGSLRLSCAASGLIFYDNMGWYRQAPGKERELLAAISSSGGSTSYADSVKGRFTISRDNAKITVSLQMNCLKPEDTGVYYCAADSYPAYLGFVGFDYWGQGTQVTVSS	low polyreactivity

Sequence	polyreactivity (PSR sort gate)
QVQLVESGGGLVQAGGSLRLSCAASGSPVSRYALGWYRQAPGKERELVAAFSWGGNTYYADSVKGRFTISRDNAKNTVYLQMKSLKPEDTAVYYCNRYSKLYNTMDYWGQGTQVTVSS	high polyreactivity
QVQLVESGGGLDQAGGSLRLSCAASGFIFVRNAMGWYRQPPGKERELVAAITRSGGSTSYADSVKGRFTISRDNAKNTVYLQMNSLKPEDTAVYYCASERYPWQLYWSYYGYYYWGQGTQVTVSS	high polyreactivity
QVQLVESGGGLVQAGGSLRLSCAASGSTFAFNAMGWYRQAPGKERELVATISQSGGSTYYADSVKGRFTISRDNAKNTVYLQMNSLKPEDTAVYYCAKRYWSKWYGRYEYWGQGTQVTVSS	low polyreactivity
QVQLVESGGGLVQAGGSLRLSCAASGRTFTVNAMGWYRQAPGKEREFVATISYRGGSTYADSVKGRFTISRDNAKNNVYLQMNSLKPEDTAVYYCAARSFWPYYGGDYDYWGQGNQVTVSS	high polyreactivity
QVQLVESGGGLVQAGGSLRLSCAASGSIFSGNAMGWYRQAPGKERELVAAISRSGGSTYYADSVKGRFTISRDYAKNTVYLQMNSLKPEDTAVYYCAKGQYYYIGDYDYWGQGTQVTVSS	high polyreactivity
QVQLVESGGGLVQAGGSLRLSCAACGRTFQSNAMGWYRQAPGKERELVARITRRGGITYYADSVKGRFTISRDNAKNTVYLQMNSLKPEDTAVYYCNRYLYDSYRWAALQRTGYNSWGQGTQVTVSS	high polyreactivity
QVQLEESGGGLVQAGGSLRLTCAASGRTFLGNAMGSYRQAPGKEREFVAVISHSGGGTSYADSVKGRFTISRDNAKNTVYLQMNSLKAEETAVYYCAAYSVSSTTWYYYDEYGYWGQGTQVTVSS	low polyreactivity
QVQLVESGGGLVQAGGSLRLSCAASGITFFTYAMGWYRQAPGKERELVAAISGSGGSTYYADSVKGRFTISRDNAKNTVYLQMNSLKPEDTAVYYCATDTGYPYSYDLYDSYYWGQGTQVTVSS	low polyreactivity
QVQLVESGGGLVQAGARLRLSCAASVSTFQSNAMGWSRQAPGKERELVAAIDQSGGSTYYADSLKGRFTISRDNAKNTVYLQMNSLKPEYTAVYYCAARTSGYWFSYGSWGQGTQVTVSS	high polyreactivity
QVQLQESGGVLVQAGGSLRQSYAASGYIFPSLAMGWYRQAPGKEREFVAAIGRGSTNNYADSVKGRFTISRDNAKNTAYQQMNSLKPEDTAVYYCAAAASPLTRHLYWGQGTQVTVSS	low polyreactivity
QVQLVESGGGLVQAGGSLRLSCAASGRIFAYYAMGRYRQAPGKERELVAAITRSGARTYYADSVKGRFTISRDNAKNTVYLQMNSLKPEDTAVYYCAAEGVRIGTRYDYWGQGTQVTVSS	high polyreactivity
QVQLVESGGGIVQAGGSLRLSCAASGRTFYYAMGWYRQAPGKERELVAAITSSSSTYYADSVKGRFTISRDNAKNTVYLQMNSLKPEDTAVYYCNSADDPYGSPSYGYDYWGQGTQVTVSS	low polyreactivity
QVQLVESGGGLVQAGGSLRLSCAASGFTFSKYAMGWYRQAPGKERELVAGITWSGGRTYYADSVKGRFTISRDNAKNTVYLQLNSLIPDDSAVYYCAADPVWGRYIKYDYWGQGTQVTVSS	high polyreactivity
QGQLVESGGGLVQAGGSLRLSCAASGSTFQGYAMGWYRQAPGKERELVAAISGRSGSTYYADSVKGRFTISRDNAKNTVYLQMNSLKPEDTADYYCAAGIPFRQRLRRYYYWGQGSQVTVSS	high polyreactivity
QVQLVESGGGLVQAGGSLRLSCAASGSIFGYNAMGWYRQAPGIERELVAAISSGGNTYYADSVKGRFTISRDNAKNTVYLQMNSLKPEDTAVYYCAVDYYYGFDWGQGTQVTVSS	low polyreactivity
QVQLVESGGGLVQAGGSLRLSCAASGRTLAPYAMGWYRQAPGKERELVAISTIGGSTYYADSVKGRFTISRDNAKNTVYLQMNSLKPEETAVYYGAADGNSTGVYLAGGEGFAYDYWGQVTQVTVSS	low polyreactivity
QVQHVESGGGLVQAGGSLRLSCDAYGSTFYYYAMGWYRQAPGKERELVASISRGGSTNYAYSVKGRFTISRDNAKNTVYLQMNSLKAEDTAVYYCNADRYLRPKSWWTVYYERDYWGQGTQVTVSS	low polyreactivity
KVQLVESGGGLVQAGGSLRISCAASGITFNPYAMGWYRQAAGKERELVAAISRRGGSTNYADSVKGRFTISRDNAKNTVYLQMNSLKPEDTAVYDCNRDYPIGYRHDPVYYWGQGTQVTVSS	high polyreactivity
QVQLVESGGGLVQAGGSLRLSCAASGSIFYYYAMGWYRQAPGKERELVAAIDFGGGSTYYADSVKGRFTISRDNEKNTVYLQMNSLKPEDTAVYYCAARTFKDAGTAYGSWGQGTQETVSS	high polyreactivity
QDQLVESGGGLVQAGGSLRLSCAASGSTFVRYDMGWYRQAPGKERELVADISWSGVSTYADSVKGRFTISRDNAKNTVYLQMNSLKPEDTAVYYCAKDSDLYQRGGYYWGQGTQVTVSS	low polyreactivity
QVQLVESGGGLVQAGGSLRLSCAASGSIFGINTMRWYRQAPGKEREFVASIRFNDGDTYYADSVKGRFTISRDNAKNTVYFQMNSLKPEDTAVYYFNVQTYVELRLDYWGQGTHVTVSS	low polyreactivity
